Source: patent US20260167721A1 (ABLEXIS, published 2026)
Residue numbers refer to the chain shown, from its start.

B1: CD3 × CD33-BspAb122 (bispecific antibody)
chain 1: QTVVTQEPSFSVSPGGTVTLTCGLSSGSVSTSYYPSWYQQTPGQAPRTLIYSTNTRSSGVPDRFSGSILGNKAALTITGAQADDESDYYCVLYMGSGIWVFGCGTKLTVLGGGGSGGGGSGGGGSGGGGSEVQLVESGGGLVKPGGSLRLSCAASGFTVSNYSMNWVRQAPGKCLEWVSSISRSSSYIYYADSVKGRFTISRDNAKNSLFLQMNSLRAEDTAVYYCARERWELLYFDYWGQGTLVTVSSDKTHTCPPCPAPEFEGGPSVFLFPPKPKDTLMISRTPEVTCVVVDVSHEDPEVKFNWYVDGVEVHNAKTKPREEQYNSTYRVVSVLTVLHQDWLNGKEYKCKVSNKALPASIEKTISKAKGQPREPQVYTLPPCREEMTKNQVSLWCLVKGFYPSDIAVEWESNGQPENNYKTTPPVLDSDGSFFLYSKLTVDKSRWQQGNVFSCSVMHEALHNHYTQKSLSLSPGK
chain 2: EVQLVQSGAEVKKPGSSVKVSCKASGYTITDSNIHWVRQAPGQSLEWIGYIYPYNGGTDYNQKFKNRATLTVDNPTNTAYMELSSLRSEDTAFYYCVNGNPWLAYWGQGTLVTVSSASTKGPSVFPLAPSSKSTSGGTAALGCLVKDYFPEPVTVSWNSGALTSGVHTFPAVLQSSGLYSLSSVVTVPSSSLGTQTYICNVNHKPSNTKVDKRVEPKSCDKTHTCPPCPAPEFEGGPSVFLFPPKPKDTLMISRTPEVTCVVVDVSHEDPEVKFNWYVDGVEVHNAKTKPREEQYNSTYRVVSVLTVLHQDWLNGKEYKCKVSNKALPASIEKTISKAKGQPREPQVCTLPPSREEMTKNQVSLSCAVKGFYPSDIAVEWESNGQPENNYKTTPPVLDSDGSFFLVSKLTVDKSRWQQGNVFSCSVMHEALHNRFTQKSLSLSPGK
chain 3: DIQLTQSPSTLSASVGDRVTITCRASESLDNYGIRFLTWFQQKPGKAPKLLMYAASNQGSGVPSRFSGSGSGTEFTLTISSLQPDDFATYYCQQTKEVPWSFGQGTKVEVKRTVAAPSVFIFPPSDEQLKSGTASVVCLLNNFYPREAKVQWKVDNALQSGNSQESVTEQDSKDSTYSLSSTLTLSKADYEKHKVYACEVTHQGLSSPVTKSFNRGEC
B2: CD3 × CD33-BspAb125 (bispecific antibody)
chain 1: not shown
chain 2: B1 chain 2
chain 3: B1 chain 3
B3: CD3 × CD33-BspAb69 (bispecific antibody)
chain 1: EVQLVESGGGLVKPGGSLRLSCAASGFTFSYYSMNWVRQAPGKCLEWVSSISRSTTYIYYADSVKGRFTISRDNAKNSLYLQMNSLRAEDTAVYYCARDGKGAIFLDYWGQGTLVTVSSGGGGSGGGGSGGGGSGGGGSSYELTQPPSVSVSPGQTARITCSGDALPKKYAYWYQQKSGQAPVLVIYEDSKRPSGIPERFSGSSSGTMATLTISGAQVEDEADYYCYSTDSSGNHRVFGCGTKLTVLDKTHTCPPCPAPEFEGGPSVFLFPPKPKDTLMISRTPEVTCVVVDVSHEDPEVKFNWYVDGVEVHNAKTKPREEQYNSTYRVVSVLTVLHQDWLNGKEYKCKVSNKALPASIEKTISKAKGQPREPQVYTLPPCREEMTKNQVSLWCLVKGFYPSDIAVEWESNGQPENNYKTTPPVLDSDGSFFLYSKLTVDKSRWQQGNVFSCSVMHEALHNHYTQKSLSLSPGK
chain 2: B1 chain 2
chain 3: B1 chain 3
B4: CD3 × CD33-BspAb123 (bispecific antibody)
chain 1: QTVVTQEPSFSVSPGGTVTLTCGLNSGSVSTSYYPSWYQQTPGQTPRTLIYSTNTRSSGVPDRFSGSILGNKAALTITGAQADDESDYYCVLYMGSGIWVFGCGTKLTVLGGGGSGGGGSGGGGSGGGGSQVQLVQSGAEVKKPGASLKVSCKASGYTFTSYYMHWVRQAPGQCLEWMGIINPSNGNTISAQKFQGRVTMTRDTSTSTVYMEMSSLRSEDTAVYYCVRSWGYYVMDVWGQGTTVTVSSDKTHTCPPCPAPEFEGGPSVFLFPPKPKDTLMISRTPEVTCVVVDVSHEDPEVKFNWYVDGVEVHNAKTKPREEQYNSTYRVVSVLTVLHQDWLNGKEYKCKVSNKALPASIEKTISKAKGQPREPQVYTLPPCREEMTKNQVSLWCLVKGFYPSDIAVEWESNGQPENNYKTTPPVLDSDGSFFLYSKLTVDKSRWQQGNVFSCSVMHEALHNHYTQKSLSLSPGK
chain 2: B1 chain 2
chain 3: B1 chain 3
B5: CD3 × CD33-BspAb124 (bispecific antibody)
chain 1: not shown
chain 2: B1 chain 2
chain 3: B1 chain 3
B6: CD3 × CD33-BspAb68 (bispecific antibody)
scFv-Fc: EVQLVESGGGLVKPGGSLRLSCSASGFTFSTYTMNWVRQAPGKCLEWVSSISKSSSYIYYTDSVKGRFTISRDNAKNSLYLQMNSLRAEDTAVYYCARERRTLAFDIWGQGTMVTVSSGGGGSGGGGSGGGGSGGGGSNFMLTQPHSVSESPGKTVTISCTRSSGSIASNYVQWYQQRPGSSPTTVIYEDNQRSSGVPDRFSGSIDSSSNSASLTISGLKTEDEADYYCQSYDRSNRVFGCGTKLTVLGGGGSDKTHTCPPCPAPEFEGGPSVFLFPPKPKDTLMISRTPEVTCVVVDVSHEDPEVKFNWYVDGVEVHNAKTKPREEQYNSTYRVVSVLTVLHQDWLNGKEYKCKVSNKALPASIEKTISKAKGQPREPQVYTLPPCREEMTKNQVSLWCLVKGFYPSDIAVEWESNGQPENNYKTTPPVLDSDGSFFLYSKLTVDKSRWQQGNVFSCSVMHEALHNHYTQKSLSLSPGK
heavy: B1 chain 2
light: B1 chain 3
notes: KiH heterodimer
B7: ABL-CD3-43 (antibody, V domains shown)
VH: EVQLVQSGAEVKKPGESLKISCKGSEYSFTTYWIAWVRQMPGKGLEWMGIIYPGDSDTTYSPSFQGQVTISADKSISIAFLQWSSLKASDTAMYYCARQGELDAFDIWGQGTMVTVSS
VL: QSALTQPASVSGSPGQSITISCTGTSSDVGSYNLVSWYQQHPGKAPKLMIYEDIRRPSGVSNRFSASKSGDTASLTISGLQAEDEADYYCCSYAGSTTFAIFGGGTKLTVL
notes: Chimeric hybridoma mAb: human V, CH1, upper hinge; mouse middle hinge, CH2, CH3
B8: ABL-CD3-46 (antibody, V domains shown)
VH: EVQLVESGGGLVKPGGSLRLSCSASGFTFSTYTMNWVRQAPGKGLDWVSSISKSSTYIYYADSVKGRFTISRDNAKNSLYLQMNSLRAEDTAVYYCARERRTLAFDIWGQGTMVTVSS
VL: NFMLTQPHSVSESPGKTVTISCTRSSGSIASNYVQWYQQRPGSSPTTVIYEDNQRPSGVPDRFSGSIDSSSNSASLTISGLKTEDEADYYCQCYDRSNRVFGGGTKLTVL
notes: as for B7
B9: ABL-CD3-60 (antibody, V domains shown)
VH: EVQLVESGGGLVKPGGSLRLSCAASGFTFSIYSMNWVRQAPGKGLEWVSSISSGSSYIYYADSVKGRFTISRDNAKSSLFLQMNSLRAEDTAVYYCAREKRELLFDYWGQGTLVTVSS
VL: B8 VL with S69R, C93S, R96S
notes: as for B7
B10: ABL-CD3-49 (antibody, V domains shown)
VH: B8 VH with D46E, T56S, A61T
VL: B8 VL with P56S
notes: as for B7

target: T1, human CD3 (TCR/CD3 complex on the cell surface) (human, UniProt P07766 23-207; P04234 22-171; P09693 23-182); test: flow cytometry, Pan-T cells, 1 ug/mL
T1 construct: whole, on cells; Native CD3 on human Pan-T cells or Jurkat wild-type cells; also called CD3 on Pan-T cells; CD3 on Jurkat WT cells
T1 sequence (P07766 23-207, chain 1 of 3): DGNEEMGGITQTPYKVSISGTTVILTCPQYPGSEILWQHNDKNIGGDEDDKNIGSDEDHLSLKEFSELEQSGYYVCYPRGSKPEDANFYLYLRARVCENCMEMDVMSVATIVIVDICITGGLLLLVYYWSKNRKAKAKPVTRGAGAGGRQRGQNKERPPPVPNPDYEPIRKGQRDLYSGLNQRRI
T1 sequence (P04234 22-171, chain 2 of 3): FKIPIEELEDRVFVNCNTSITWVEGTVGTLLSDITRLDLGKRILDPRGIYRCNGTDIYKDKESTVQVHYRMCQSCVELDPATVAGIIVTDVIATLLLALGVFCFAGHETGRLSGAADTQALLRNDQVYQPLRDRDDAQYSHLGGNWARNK
T1 sequence (P09693 23-182, chain 3 of 3): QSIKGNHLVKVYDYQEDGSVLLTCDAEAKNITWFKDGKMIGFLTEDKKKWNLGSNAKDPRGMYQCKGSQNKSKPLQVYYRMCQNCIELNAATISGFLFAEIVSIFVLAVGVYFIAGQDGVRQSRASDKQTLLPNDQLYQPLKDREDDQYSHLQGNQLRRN

Row | % Positive [%] | gMFI [gMFI] | Binder
1 | 1.9 | 2080 | B1
2 | 42.2 | 6020 | B2
3 | 99.7 | 95300 | B3
4 | 1.8 | 1860 | B4
5 | 1.5 | 1950 | B5
6 | 100 | 539000 | B6

target: T1, human CD3 (TCR/CD3 complex on the cell …); test: flow cytometry, Pan-T cells, 10 ug/mL

Row | % Positive [%] | gMFI [gMFI] | Binder
7 | 1 | 2020 | B1
8 | 95.4 | 28700 | B2
9 | 99.8 | 281000 | B3
10 | 1.4 | 1920 | B4
11 | 1 | 1970 | B5
12 | 99.9 | 601000 | B6

target: T1, human CD3 (TCR/CD3 complex on the cell …); test: flow cytometry, Jurkat WT cells, 1 ug/mL

Row | gMFI [gMFI] | Binder
13 | 1910 | B1
14 | 3680 | B2
15 | 16500 | B3
16 | 1680 | B4
17 | 1800 | B5
18 | 58000 | B6

target: T1, human CD3 (TCR/CD3 complex on the cell …); test: flow cytometry, Jurkat WT cells, 10 ug/mL

Row | gMFI [gMFI] | Binder
19 | 1980 | B1
20 | 13700 | B2
21 | 25800 | B3
22 | 1710 | B4
23 | 1790 | B5
24 | 63600 | B6

target: T1, human CD3 (TCR/CD3 complex on the cell …); test: flow cytometry, Jurkat WT gMFI over Jurkat KO gMFI, 1 ug/mL

Row | Jurkat WT/KO (Fold) [fold] | Binder
25 | 0.8 | B1
26 | 1.5 | B2
27 | 6.3 | B3
28 | 0.9 | B4
29 | 0.9 | B5
30 | 12.9 | B6

target: T2, recombinant human CD3 epsilon/delta heterodimer (human, UniProt P07766 23-126; P04234 22-105); test: Octet BLI, mAb on FAB2G sensor, hCD3 E/D 200-50 nM; R^2 0.99
T2 construct: Recombinant protein in solution (200-50 nM) in the Octet assay; also called hCD3 E/D; human CD3E/D
T2 sequence (P07766 23-126, stated change not applied, chain 1 of 2): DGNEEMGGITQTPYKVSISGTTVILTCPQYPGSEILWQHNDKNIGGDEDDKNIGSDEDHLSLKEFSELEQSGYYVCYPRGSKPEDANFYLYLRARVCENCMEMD
T2 sequence (P04234 22-105, stated change not applied, chain 2 of 2): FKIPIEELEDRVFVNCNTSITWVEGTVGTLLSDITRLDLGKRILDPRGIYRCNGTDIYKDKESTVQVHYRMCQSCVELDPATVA

Row | Kd [nM] | Response | koff [s⁻¹] | kon [M⁻¹ s⁻¹] | Binder
31 | 6.2 | 0.62 | 0.000754 | 122000 | B7
32 | 9.48 | 1.02 | 0.00171 | 180000 | B8
33 | 231 | 0.1 | 0.0962 | 417000 | B9
34 | 6.52 | 0.93 | 0.00131 | 200000 | B10

target: T3, recombinant human CD3 epsilon/gamma heterodimer (human, UniProt P07766 23-126; P09693 23-116); test: Octet BLI, mAb on FAB2G sensor, hCD3 E/G 200-50 nM; R^2 0.98
T3 construct: Recombinant protein in solution (200-50 nM) in the Octet assay; also called hCD3 E/G
T3 sequence (P07766 23-126, chain 1 of 2): as the sequence (P07766 23-126, stated change not applied, chain 1 of 2) above
T3 sequence (P09693 23-116, chain 2 of 2): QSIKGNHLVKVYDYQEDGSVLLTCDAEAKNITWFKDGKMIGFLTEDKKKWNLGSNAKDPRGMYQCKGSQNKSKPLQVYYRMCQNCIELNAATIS

Row | Kd [nM] | Response | koff [s⁻¹] | kon [M⁻¹ s⁻¹] | Binder
35 | 6.94 | 0.62 | 0.00104 | 150000 | B7
36 | 16.3 | 0.88 | 0.00333 | 204000 | B8
37 | 90.7 | 0.07 | 0.0583 | 642000 | B9
38 | 11.4 | 0.82 | 0.00253 | 223000 | B10

target: T1, human CD3 (TCR/CD3 complex on the cell …); test: flow cytometry, Jurkat WT gMFI over Jurkat KO gMFI, 10 ug/mL

Row | Jurkat WT/KO (Fold) [fold] | Binder
39 | 1 | B1
40 | 5.3 | B2
41 | 8.7 | B3
42 | 0.8 | B4
43 | 0.9 | B5
44 | 13.6 | B6
